Laboratory results taken from patent US8227408B2, “Leptin as an anti-amyloidogenic biologic and methods for delaying the onset and reducing Alzheimer's disease-like pathology” (Neurotez, Inc., priority 2005, dated 2012).

Legend:
[1] = tested on: primary embryonic rat neurons infected with adenovirus; assay: Aβ production by primary embryonic rat neurons infected with adenovirus (SEAP-APP); assay type: cell-based; settings: total Aβ in conditioned media, 5 h; concentration (TOFA 200 μM, cerulenin 200 μM, etomoxir 40 μM, peptide YY (3-36) 25 μM, CNTF 25 μM, leptin 400 ng/ml); mean ± SEM; NS = non-significant
Description: Cell cultures, Treatments, Antibodies and Immunoassays. SY5Y cells (human neuroblastoma) were maintained in culture as described (Johnsingh et al., FEBS Lett. 465:53-8 (2000)). Primary neural cultures were obtained from ε16 rat embryonic cortex, as described (Shimoda et al., 1992. Brain Res. 586:319-31 (1992)). These were either grown as mixed cultures (Johnsingh et al., FEBS Lett. 465:53-8 (2000)) or grown under conditions that favor the isolation and proliferation of astrocytes (Takeshima et al., J Neurosci. 14:4769-79 (1994)).
Neuro2a (mouse neuroblastoma) stably transfected with hyg-sa134, a pcDNA3.1/Hygro plasmid (Invitrogen, CA) modified to express a fusion protein of secreted alkaline phosphatase (SEAP) and a fragment of APP consisting of the C-terminal 134 amino acids (“CAPP134”) (SEQ ID NO:10) were maintained in culture as described ([…]) in the presence of 400 μg/ml of hygromycin. SEQ ID NO: 11 is the DNA sequence of the entire hygsa134 vector, which was derived from the pcDNA3.1/Hygro vector by genetic manipulation to insert the DNA sequences for SEAP and CAPP134. The SEAP-CAPP cDNA insert from hyg-sa134 was also subcloned into an adenoviral vector using the Adeno Vator system (Qbiogene, Calif.). The DNA sequence for SEAP (corresponding to nucleotides 981-2441 of hyg-sa134) (SEQ ID NO: 9) is located 5′ to the DNA sequence (SEQ ID NO: 12) coding for CAPP134 (SEQ ID NO: 10).
SY5Y and hyg-sa134-Neuro2a cells were treated at 80% confluency (see below). Primary neural cultures from mouse embryos were allowed to grow for 6-12 days following plating and prior to viral infection and treatments.
Human (SYSY) or mouse neuroblastoma cell-lines (Neuro2a) commonly are used to study amyloid β metabolism in vitro. Neuro2a cells are stably transfected with hyg-sa134 (SEQ ID NO: 11), a plasmid driving the expression of a recombinant fusion protein containing the human C-terminal fragment of APP of about 134 amino acids, CAPP134 (SEQ ID NO: 10). Here, 5Y5Y or Neuro2a cultures were treated for 2 or 5 h with about 100 ng/ml or about 400 ng/ml leptin (FIG. 4a, 4b). Similarly, primary neurons from embryonic rat brain, infected with an adenovirus to direct the expression of CAPP134 (SEQ ID NO:10) also were treated according to the same regimen.

BACE = BACE activity, APP and flotillin in sucrose gradient fractions of treated SY5Y cells (fluorescence quenching assay); assay type: cell-based, human
Procedure: In panel (a), Neuro2a cells stably transfected with hyg-sa134 were treated for about 2 h or about 5 h with about 100 ng/ml leptin, Ob (black); about 125 mg/ml cyclodextrin, CDX (striped gray); about 5 mg/ml cholesterol, Ch (pale gray); and leptin plus cholesterol, Ob+Ch (medium gray). Media were collected and assayed for total Aβ by ELISAs (Figueiredo-Pereira et al., J Neurochem. 72:1417-22 (1999)). […] Water soluble cholesterol (Sigma-Aldrich, Mo.) is a solution made of cholesterol balanced with CDX (40 mg cholesterol per gr CDX). […] Extracts prepared from harvested cells were analysed by SDS-PAGE and Western blotting using an antibody directed against the C-terminal fraction of APP (C-APP, lanes 1-4) or actin (top lanes 5-8) or full-length APP (bottom lanes 5-8). […] Fractions collected from the bottom of the gradient were analysed by SDS-PAGE and Western blotting for the detection of APP and flotillin (marker for lipid rafts). […] In panel (e), fractions collected as above were assayed for β-secretase activity using a fluorescence-quenching assay (QTL Biosystems, NM). The results are expressed as the percent distribution of BACE activity within the gradient derived from cell cultures in the absence (black) or presence (gray) of leptin in the medium. […]

B1: Leptin: peptide hormone controlling adaptive metabolic mechanisms to energy availability; leptin (Harbor-UCLA) in vitro, recombinant murine leptin in mice (protein, UniProt P41160 22-167, looked up)
Leptin: VPIQKVQDDTKTLIKTIVTRINDISHTQSVSAKQRVTGLDFIPGLHPILSLSKMDQTLAVYQQVLTSLPSQNVLQIANDLENLRDLLHLLAFSKSCSLPQTSGLQKPESLDGVLEASLYSTEVVALSRLQGSLQDILQQLDVSPEC
Neurons/SEAPP-APP Aβ (% control) [1]: 35 ± 4 % control | activity of BACE in the low density fractions (BACE; about 400 ng/ml leptin, about 5 h, sucrose gradient fractions): almost absent | flotillin migration / elution position on sucrose gradient (BACE; compared to controls): migrated at heavier subcellular fractions
